Experimental data taken from US20220282283, “NOVEL CRISPR DNA TARGETING ENZYMES AND SYSTEMS” (ARBOR BIOTECHNOLOGIES, INC., published 2022).

T1: CLUST.143952 3300028591 effector (Ga0247611_10000032_233) (uncultured metagenome (sheep rumen))
T1 chain: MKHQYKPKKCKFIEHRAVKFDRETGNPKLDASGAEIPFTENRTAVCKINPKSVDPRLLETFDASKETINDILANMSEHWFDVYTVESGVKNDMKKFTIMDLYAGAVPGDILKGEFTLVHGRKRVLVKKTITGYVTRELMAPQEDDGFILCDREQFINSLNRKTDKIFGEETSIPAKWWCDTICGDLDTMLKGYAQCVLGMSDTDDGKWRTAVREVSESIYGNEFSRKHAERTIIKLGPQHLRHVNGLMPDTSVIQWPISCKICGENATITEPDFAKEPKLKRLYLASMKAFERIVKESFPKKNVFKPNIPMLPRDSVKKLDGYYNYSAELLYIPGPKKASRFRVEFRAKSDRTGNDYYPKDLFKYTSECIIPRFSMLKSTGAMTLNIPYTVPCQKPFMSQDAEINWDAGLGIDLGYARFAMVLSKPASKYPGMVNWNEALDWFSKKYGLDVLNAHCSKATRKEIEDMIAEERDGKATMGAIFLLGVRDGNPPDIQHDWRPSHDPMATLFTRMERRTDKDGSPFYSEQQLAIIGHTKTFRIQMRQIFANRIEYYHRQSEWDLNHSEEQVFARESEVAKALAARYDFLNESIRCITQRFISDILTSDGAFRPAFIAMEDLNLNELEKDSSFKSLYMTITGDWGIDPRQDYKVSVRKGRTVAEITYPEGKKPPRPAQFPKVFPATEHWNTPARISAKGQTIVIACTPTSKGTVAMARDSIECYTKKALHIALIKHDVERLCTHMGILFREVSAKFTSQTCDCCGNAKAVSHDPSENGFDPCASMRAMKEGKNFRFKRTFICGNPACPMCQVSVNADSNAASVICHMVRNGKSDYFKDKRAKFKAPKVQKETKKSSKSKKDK

B1: pre-crRNA Target 1 (DR-spacer-DR) ; GFP Target 1 (ssRNA ; dsDNA)
RNA: UAUGGUAGAGGUGCCACCGGUUUACAUGGCGCCGAUACCAAGGUAUGAAAUUUAUCAUUAAAGGCGUAUGGUAGAGGUGCCACCGGUUUACAUGGCGCCGAUACCUAACCCCUCUCUAAACGGAGGGGUUU
DNA 1: AAGGTATGAAATTTATCATTAAAGGCG
DNA 2: CGCCTTTAATGATAAATTTCATACCTT
B2: mature crRNA Target 3 ; GFP Target 3 (ssRNA ; dsDNA)
RNA: UAUGGUAGAGGUGCCACCGGUUUACAUGGCGCCGAUACCAAGGUAUGAAAUUUAUCAUUAAAG
DNA 1: AAGGTATGAAATTTATCATTAAAG
DNA 2: CTTTAATGATAAATTTCATACCTT

How the values were obtained:
[1] = molecular target: T1, CLUST.143952 3300028591 effector …; assay: PAM 5'-G-3'; 37 C, in vitro transcription/translation; ratio normalised to non-target guide (SEQ 90); details: tags: FDA assay, one-pot in vitro transcription/translation
Source text: (§1) In this assay, an active CRISPR system designed to target GFP binds and cleaves the double-stranded DNA region encoding GFP, resulting in depletion of GFP fluorescence. The FDA assay involves in vitro transcription and translation, allowing production of an RNP from a DNA template encoding a CLUST.143952 effector and a DNA template containing a pre-crRNA sequence under a T7 promoter with direct repeat (DR)-spacer-direct repeat (DR); the spacer targeted GFP. In the same one-pot reaction, GFP and RFP were also produced as both the target and the fluorescence reporter (FIG. 8A). The target GFP plasmid sequence is set forth in SEQ ID NO: 86, and the RFP plasmid sequence is set forth in SEQ ID NO: 87. GFP and RFP fluorescence values were measured every 20 min at 37° C. for 12 hr, using a TECAN Infinite F Plex plate reader. Since RFP was not targeted, its fluorescence was not affected and was therefore used as an internal signal control.
(§2) 2 GFP targets (plus 2 non-targets) were designed for the effector of SEQ ID NO: 1. RNA guide sequences (pre-crRNAs for Target 1 and Non-Target 2 and mature crRNAs for Target 3 and Non-Target 4), target sequences, and the non-target control sequences used for the FDA assay are listed in TABLE 9. […]
(§3) GFP signal was normalized to RFP signal, then the average fluorescence of three technical replicates was taken at each time point. […]

[2] = molecular target: T1, CLUST.143952 3300028591 effector …; assay: PAM 5'-G-3'; 37 C, in vitro transcription/translation; ratio normalised to non-target guide (SEQ 93); details: tags: FDA assay, one-pot in vitro transcription/translation
Source text: as §1, §2, §3

| Binder | activity [1] [GFP depletion ratio] | activity [2] [GFP depletion ratio] |
| --- | --- | --- |
| B1 | > 1 | – |
| B2 | – | > 1 |
